What was measured:
[1] = tested on: T1, HcdR2 (LuxR family regulator) (Streptomyces mobaraensis US-43), ORF:dfa86b54; test: EMSA; conditions: EMSA: 10 mM Tris-HCl, 50 mM KCl, 1 mM DTT, pH 7.5 (1x of 10x buffer), 20 fmol probe in 20 uL, 25-2000 nM protein, room temperature 20 min; native 5% gel, 0.5x …
T1 sequence: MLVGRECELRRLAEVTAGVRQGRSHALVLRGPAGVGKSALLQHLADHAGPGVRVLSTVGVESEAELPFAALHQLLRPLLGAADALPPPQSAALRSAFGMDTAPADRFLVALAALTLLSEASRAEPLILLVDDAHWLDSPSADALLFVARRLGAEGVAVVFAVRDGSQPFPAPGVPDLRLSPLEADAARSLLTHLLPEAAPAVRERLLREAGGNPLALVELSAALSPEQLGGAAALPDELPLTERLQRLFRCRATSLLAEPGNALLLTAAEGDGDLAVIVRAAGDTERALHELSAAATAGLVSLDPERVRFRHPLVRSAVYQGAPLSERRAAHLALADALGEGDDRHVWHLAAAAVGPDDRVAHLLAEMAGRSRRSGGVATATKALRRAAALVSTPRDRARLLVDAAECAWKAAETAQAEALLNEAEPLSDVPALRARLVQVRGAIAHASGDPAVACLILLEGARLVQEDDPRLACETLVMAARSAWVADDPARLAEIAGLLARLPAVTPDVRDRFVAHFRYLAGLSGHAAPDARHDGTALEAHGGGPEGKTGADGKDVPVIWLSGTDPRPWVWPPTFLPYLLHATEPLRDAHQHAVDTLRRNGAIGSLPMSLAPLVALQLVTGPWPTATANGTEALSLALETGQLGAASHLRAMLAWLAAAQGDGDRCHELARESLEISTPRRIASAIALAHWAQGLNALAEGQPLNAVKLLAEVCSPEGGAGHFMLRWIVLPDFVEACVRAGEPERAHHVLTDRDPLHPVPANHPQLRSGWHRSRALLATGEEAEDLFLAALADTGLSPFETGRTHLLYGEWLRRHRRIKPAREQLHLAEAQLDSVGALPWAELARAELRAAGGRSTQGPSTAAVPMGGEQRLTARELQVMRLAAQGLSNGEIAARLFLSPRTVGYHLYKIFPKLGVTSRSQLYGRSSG

[2] = tested on: T1, HcdR2 (LuxR family regulator) (Streptomyces mobaraensis US-43), ORF:dfa86b54; test: competition; conditions: EMSA: 10 mM Tris-HCl, 50 mM KCl, 1 mM DTT, pH 7.5 (1x of 10x buffer), 20 fmol probe in 20 uL, 25-2000 nM protein, room temperature 20 min; native 5% gel, 0.5x …

| Sequence | binding [1] | binding [2] |
| --- | --- | --- |
| GATTCAGCCAAGTGACCCCGCAAGAAGCCTCGTTCGCGAACGGTCCCTGAGCCCGCGCCCGCGCCGCACCCGCGGACCATCCGCCGAACGGCCGGGCCGCCCGTACGGTCTGGAGAGCGCCACGGCGTGCGGGTCCCGGTGGTGGGCCACGGCGCGGCCGACCCGTCAGGTGTTTCCGGGAGGCCGCGCCGCGGAGGGCACGCACGTCCGTGGCGGGACCGGGGGACGGGAGACGGCGTGGCGCCGCGTCATGGTCGTCCGGCGCCTCGATGCCGTCACGGCGCAGGGCGGGCCCGCCGG (double strand) [hcdT-1p] | no binding |  |
| CTCTTCGCGGGGAGAGAGCGGCCGGTCGCGGCACGGCGAGCCTATGAAGATCGACACGGCCGCCCCACCCCCTACGACCCCTACGAACCCCTGTCCCCTACCGGCGCGGCAGGGGACAGGGGTTCGTAGGGGTCGTAGGGGGTGGGGGGCCGCCGGACGATCTTCATAGGCTCGCTCTCGATCGGAGACGGCCCTCGCAGCCGTGTCCCCGGCAACCCGGACTTCTCGCGGACCGGCCGCCCCCAGGCCGACCCCCCTACTCGATCCACGACGAGAAAGAGGTT (double strand) [V2 Bp] |  | binds |
| CGCGCCCAGCGGCCAGGTGGGCCGTTGCGCCAGGCGGGCGGCCGCCACCCCCGCAGTGCCAGGGGCAGTCCGCCGCACAGCTCGGCCAGCCGTCGCGCAGC (double strand) [hcdR1p] |  | no binding |

From article PMC6794829
